Km data for one protein are collected here from article PMC6598175.

Usually Km stands for the substrate concentration at which the rate is half of its maximum.

Substrate in this data set: Cc1cc(=O)oc2cc(O[C@@H]3OC[C@@H](O[C@@H]4OC[C@@H](O)[C@H](O)[C@H]4O)[C@H](O)[C@H]3O)ccc12
Briefly: Substrate hydrolysis kinetics. The settings on record: other: fluorogenic 4MU substrate, pH 5.0. It is filed as biochemical, A. aculeatus.

B1: …_127619 (Aspergillus aculeatus ATCC 16872) (protein)
chain: VGLDQAAVAKGLQYFGTATDNPELTDIPYVTQLNNTADFGQITPGNSMKWDATEPSQGTFTFTNGDVIADLAEGNGQYLRCHTLVWYNQLPSWVTSGTWTNATLTAALKNHITNVVSHYKGKCLHWDVVNEALNDDGTYRTNIFYTTIGEAYIPIAFAAAAAADPDAKLFYNDYNLEYGGAKAASARAIVQLVKNAGAKIDGVGLQAHFSVGTVPSTSSLISVLQSFTALGVEVAYTEADVRILLPTTATTLAQQSSDFQALVQSCVQTTGCVGFTIWDWTDKYSWVPSTFSGYGAALPWDENLVKKPAYNGLLAG
For B1, the Km came to 279 µM.
